No end group written: not given here. *: point of attachment. Biotin = O=C1N[C@H]2[C@H](CS[C@H]2CCCCC(=O)*)N1
What was measured:
asyn_113-127_124G = target: T1, asyn_113-127_124G (human); assay: Ala-scan peptide ELISA, row H, run 1
T1 construct: substitution is already in the entry; also called pep13
T1 peptide: Biotin-LEDMPVDPDNEGYEM

asyn_113-127_126A [1] = target: T2, asyn_113-127_126A (human); assay: Ala-scan peptide ELISA, row H, run 1
T2 construct: substitution is already in the entry; also called pep16
T2 peptide: Biotin-LEDMPVDPDNEAYAM

asyn_113-127_123A [2] = target: T3, asyn_113-127_123A (human); assay: Ala-scan peptide ELISA, row H, run 1
T3 construct: substitution is already in the entry; also called pep12
T3 peptide: Biotin-LEDMPVDPDNAAYEM

asyn_113-127_118A [3] = target: T4, asyn_113-127_118A (human); assay: Ala-scan peptide ELISA, row H, run 1
T4 construct: substitution is already in the entry; also called pep7
T4 peptide: Biotin-LEDMPADPDNEAYEM

[4] = target: T5, biotinylated human alpha-synuclein (human, UniProt P37840 1-140); assay: Ala-scan peptide ELISA, row H, run 1
asyn_113-127_116A [5] = target: T6, asyn_113-127_116A (human); assay: Ala-scan peptide ELISA, row H, run 1
T6 construct: substitution is already in the entry; also called pep5
T6 peptide: Biotin-LEDAPVDPDNEAYEM

asyn_113-127_122A [6] = target: T7, asyn_113-127_122A (human); assay: Ala-scan peptide ELISA, row H, run 1
T7 construct: substitution is already in the entry; also called pep11
T7 peptide: Biotin-LEDMPVDPDAEAYEM

asyn_113-127_114A [7] = target: T8, asyn_113-127_114A (human); assay: Ala-scan peptide ELISA, row H, run 1
T8 construct: substitution is already in the entry; also called pep3
T8 peptide: Biotin-LADMPVDPDNEAYEM

asyn_113-127_119A [8] = target: T9, asyn_113-127_119A (human); assay: Ala-scan peptide ELISA, row H, run 1
T9 construct: substitution is already in the entry; also called pep8
T9 peptide: Biotin-LEDMPVAPDNEAYEM

asyn_113-127_120A = target: T10, asyn_113-127_120A (human); assay: Ala-scan peptide ELISA, row H, run 1
T10 construct: substitution is already in the entry; also called pep9
T10 peptide: Biotin-LEDMPVDADNEAYEM

asyn_113-127_127A [9] = target: T11, asyn_113-127_127A (human); assay: Ala-scan peptide ELISA, row H, run 1
T11 construct: substitution is already in the entry; also called pep17
T11 peptide: Biotin-LEDMPVDPDNEAYEA

asyn_113-127_117A [10] = target: T12, asyn_113-127_117A (human); assay: Ala-scan peptide ELISA, row H, run 1
T12 construct: substitution is already in the entry; also called pep6
T12 peptide: Biotin-LEDMAVDPDNEAYEM

asyn_113-127_113A [11] = target: T13, asyn_113-127_113A (human); assay: Ala-scan peptide ELISA, row H, run 1
T13 construct: substitution is already in the entry; also called pep2
T13 peptide: Biotin-AEDMPVDPDNEAYEM

asyn_113-127_125A [12] = target: T14, asyn_113-127_125A (human); assay: Ala-scan peptide ELISA, row H, run 1
T14 construct: substitution is already in the entry; also called pep15
T14 peptide: Biotin-LEDMPVDPDNEAAEM

asyn_113-127_124P = target: T15, asyn_113-127_124P (human); assay: Ala-scan peptide ELISA, row H, run 1
T15 construct: substitution is already in the entry; also called pep14
T15 peptide: Biotin-LEDMPVDPDNEPYEM

asyn_113-127 [13] = target: T16, asyn_113-127 (human); assay: Ala-scan peptide ELISA, row H, run 1
T16 construct: also called pep1
T16 peptide: Biotin-LEDMPVDPDNEAYEM

asyn_113-127_115A [14] = target: T17, asyn_113-127_115A (human); assay: Ala-scan peptide ELISA, row H, run 1
T17 construct: substitution is already in the entry; also called pep4
T17 peptide: Biotin-LEAMPVDPDNEAYEM

asyn_113-127_121A [15] = target: T18, asyn_113-127_121A (human); assay: Ala-scan peptide ELISA, row H, run 1
T18 construct: substitution is already in the entry; also called pep10
T18 peptide: Biotin-LEDMPVDPANEAYEM

[16] = target: human alpha-synuclein oligomers (human, UniProt P37840 1-140); assay: competition ELISA: oligomers titrated in solution against 0.6 nM antibody, free antibody read on aSyn-coated plate
asyn_113-127_126A [17] = target: T2, asyn_113-127_126A; assay: Ala-scan peptide ELISA, row H, run 2
asyn_113-127_123A [18] = target: T3, asyn_113-127_123A; assay: Ala-scan peptide ELISA, row H, run 2
asyn_113-127_118A [19] = target: T4, asyn_113-127_118A; assay: Ala-scan peptide ELISA, row H, run 2
[20] = target: T5, biotinylated human alpha-synuclein; assay: Ala-scan peptide ELISA, row H, run 2
asyn_113-127_116A [21] = target: T6, asyn_113-127_116A; assay: Ala-scan peptide ELISA, row H, run 2
asyn_113-127_122A [22] = target: T7, asyn_113-127_122A; assay: Ala-scan peptide ELISA, row H, run 2
asyn_113-127_114A [23] = target: T8, asyn_113-127_114A; assay: Ala-scan peptide ELISA, row H, run 2
asyn_113-127_119A [24] = target: T9, asyn_113-127_119A; assay: Ala-scan peptide ELISA, row H, run 2
asyn_113-127_127A [25] = target: T11, asyn_113-127_127A; assay: Ala-scan peptide ELISA, row H, run 2
asyn_113-127_117A [26] = target: T12, asyn_113-127_117A; assay: Ala-scan peptide ELISA, row H, run 2
asyn_113-127_113A [27] = target: T13, asyn_113-127_113A; assay: Ala-scan peptide ELISA, row H, run 2
asyn_113-127_125A [28] = target: T14, asyn_113-127_125A; assay: Ala-scan peptide ELISA, row H, run 2
asyn_113-127 [29] = target: T16, asyn_113-127; assay: Ala-scan peptide ELISA, row H, run 2
asyn_113-127_115A [30] = target: T17, asyn_113-127_115A; assay: Ala-scan peptide ELISA, row H, run 2
asyn_113-127_121A [31] = target: T18, asyn_113-127_121A; assay: Ala-scan peptide ELISA, row H, run 2
asyn_113-127_114A [32] = target: T8, asyn_113-127_114A; assay: Ala-scan peptide ELISA, row B, run 1

- A450 (asyn_113-127_124G): 0.065 OD
- A450 (asyn_113-127_126A [1]): 0.07 OD
- A450 (asyn_113-127_123A [2]): 0.068 OD
- A450 (asyn_113-127_118A [3]): 0.069 OD
- A450 [4]: 0.086 OD
- A450 (asyn_113-127_116A [5]): 0.071 OD
- A450 (asyn_113-127_122A [6]): 0.049 OD
- A450 (asyn_113-127_114A [7]): 0.061 OD
- A450 (asyn_113-127_119A [8]): 0.048 OD
- A450 (asyn_113-127_120A): 0.063 OD
- A450 (asyn_113-127_127A [9]): 0.066 OD
- A450 (asyn_113-127_117A [10]): 0.071 OD
- A450 (asyn_113-127_113A [11]): 0.068 OD
- A450 (asyn_113-127_125A [12]): 0.047 OD
- A450 (asyn_113-127_124P): 0.049 OD
- A450 (asyn_113-127 [13]): 0.063 OD
- A450 (asyn_113-127_115A [14]): 0.051 OD
- A450 (asyn_113-127_121A [15]): 0.068 OD
- IC50 [16]: 5.38 nM
- A450 (asyn_113-127_126A [17]): 0.073 OD
- A450 (asyn_113-127_123A [18]): 0.068 OD
- A450 (asyn_113-127_118A [19]): 0.071 OD
- A450 [20]: 0.087 OD
- A450 (asyn_113-127_116A [21]): 0.073 OD
- A450 (asyn_113-127_122A [22]): 0.051 OD
- A450 (asyn_113-127_114A [23]): 0.066 OD
- A450 (asyn_113-127_119A [24]): 0.046 OD
- A450 (asyn_113-127_127A [25]): 0.066 OD
- A450 (asyn_113-127_117A [26]): 0.083 OD
- A450 (asyn_113-127_113A [27]): 0.066 OD
- A450 (asyn_113-127_125A [28]): 0.049 OD
- A450 (asyn_113-127 [29]): 0.064 OD
- A450 (asyn_113-127_115A [30]): 0.052 OD
- A450 (asyn_113-127_121A [31]): 0.069 OD
- A450 (asyn_113-127_114A [32]): 0.471 OD
B1: 20H4 (antibody, rat IgG2b, V domains shown)
VH: AVQLVESGGGLVQPKESLKISCAASGFTFSNAAMYWVRQAPGKGLELLARIRTKPNNYATYHADSVKGRFTISRDDSQSMVYLHMGNLKTEDTAMYYCTADMATGDYWGPGVMVTVSS
VL: DIQMTQSPPVLSVSVGDRVTLSCKASQNINKNLDWYQQKHGEAPKPLIYSTNNLQTGVPSRFSGSGSGTDYTLTISSLQPEDVATYYCYQYKSAWTFGGGTKLELR
notes: also called clone 20H4; rat 20H4

From US20230074436A1 (DENALI THERAPEUTICS, published 2023)
